Laboratory results: patent US20030092037A1, “Elk1 phosphorylation related gene” (priority 2001, published 2003)

System: MAP kinase cascade activation
Assay: Reporter activity reflecting MAP kinase cascade activation, corrected using an internal control (Elk1-GAL4 luciferase reporter in 293-EBNA cells)
Type: cell-based, human
Details: for Reporter activity corrected with internal control, as a factor of null vector (S/B value): 293-EBNA cells, 24 hours; for Dependence of corrected reporter activity on amount of expression plasmid: plasmid 12.5 ng, 25 ng, 50 ng and 100 ng
Procedure: (in the presence of 5% CO2). […] The method used for introduction was in accordance with the attached protocol. After culturing for 24 hours at 37° C., reporter activity (firefly luciferase acitivity), which reflects MAP kinase cascade activation, and reporter activity being the internal control (sea pansy luciferase) were measured using Picagene Dual (purchased from Toyo Ink Manufacturing) in accordance with the manufacturer's instructions.
Luciferase activity was measured with Perkin Elmer's Wallac ARVOTMST 1420 MULTILABEL COUNTER.
Reporter activity where an expression plasmid comprising the above gene was introduced, which reflects MAP kinase cascade activation corrected with internal control reporter activity, is shown in Table 1, which is expressed as a factor of the same reporter activity where a null vector was introduced (S/B value).

[1] = 12.5 ng/well expression plasmid

B1: 150 (protein, listed as Homo sapiens)
chain: MSSGKSARYNRFSGGPSNLPTPDVTTGTRMETTFGPAFSAVTTITKADGTSTYKQHCRTPSSSSTLAYSPRDEEDSMPPISTPRRSDSAISVRSLHSESSMSLRSTFSLPEEEEEPEPLVFAEQPSVKLCCQLCCSVFKDPVITTCGHTFCRRCALKSEKCPVDNVKLTVVVNNIAVAEQIGELFIHCRHGCRVAGSGKPPIFEVDPRGCPFTIKLSARKDHEGSCDYRPVRCPNNPSCPPLLRMNLEAHLKECEHIKCPHSKYGCTFIGNQDTYETHLETCRFEGLKEFLQQTDDRFHEMHVALAQKDQEIAFLRSMLGKLSEKIDQLEKSLELKFDVLDENQSKLSEDLMEFRRDASMLNDELSHINARLNMGILGSYDPQQIFKCKGTFVGHQGPVWCLCVYSMGDLLFSGSSDKTIKVWDTCTTYKCQKTLEGHDGIVLALCIQGCKLYSGSADCTIIVWDIQNLQKVNTIRAHDNPVCTLVSSHNVLFSGSLKAIKVWDIVGTELKLKKELTGLNHWVRALVAAQSYLYSGSYQTIKIWDIRTLDCIHVLQTSGGSVYSIAVTNHHIVCGTYENLIHVWDIESKEQVRTLTGHVGTVYALAVISTPDQTKVFSASYDRSLRVWSMDNMICTQTLLRHQGSVTALAVSRGRLFSGAVDSTVKVWTC
For B1, the “Reporter activity corrected with internal control, as a factor of null vector (S/B value)” value (“Reporter activity corrected” for short) [1] was 6.7, the “Reporter activity corrected” value (25 ng/well expression plasmid) was 2.8 and the “Reporter activity corrected” value (50 ng/well expression plasmid) was 1.7. The “Dependence of corrected reporter activity on amount of expression plasmid” value (“Dependence” below) was “increases that were dependent on the amount of expression plasmid”.

B2: 132 (protein, listed as Mus musculus)
chain: MAGRTMQAARCPTDELSLSNCAVVNEKDFQSGQHVMVRTSPNHKHIFTLRTHPSVVPGCIAFSLPQRKWAGLSIGQDIEVALYSFDKAKQCIGTMTIEIDFLQKKNIDSNPYDTDKMAAEFIQQFNNQAFSVGQQLVFSFNDKLFGLLVKDIEAMDPSILKGEPASGKRQKIEVGLVVGNSQVAFEKAENSSLNLIGKAKTKENRQSIINPDWNFEKMGIGGLDKGFSDIFRRAFASRVFPPEIVEQMGCKHVRGILLYGPPGCGKTLLARQIGKMLNAREPKVVNGPEILNKYVGESEANIRKLFADAEEEQRRLGANSGLHIIIFDEIDAICKQRGSMAGSTGVHDTVVNQLLSKIDGVEQLNNILVIGMTNRPDLIDEALLRPGRLEVKMEIGLPDEKGRLQILHIHTARMRGHQLLSADVDIKELAVETKNFSGAELEGLVRAAQSTAMNRHIKASTKVEVDMEKAESLQVTRGDFLASLENDIKPAFGTNQEDYASYIMNGIIKWGDPVTRVLDDGELLVQQTKNSDRTPLVSVLLEGPPHSGKTALAAKIAEESNFPFIKICSPDKMIGFSETAKCQAMKKIFDDAYKSQLSCVVVDDIERLLDYVPIGPRFSNLVLQALLVLLKKAPPQGRKLLIIGTTSRKDVLQEMEMLNAFSTTIHVPNIATGEQLLEALELLGNFKDKERTTIAQQVKGKKVWIGIKKLLMLIEMSLQMDPEYRVRKFLALMREEGASPLDFD
B2 was tested, and the “Reporter activity corrected” value [1] was 5.6, the “Reporter activity corrected” value (25 ng/well expression plasmid) was 10.1 and the “Reporter activity corrected” value (50 ng/well expression plasmid) was 16.6. For the same molecule, the “Dependence” value was “increases that were dependent on the amount of expression plasmid”.

B3: 146 (protein, listed as Homo sapiens)
chain: MNHIVQTFSPVNSGQPPNYEMLKEEQEVAMLGAPHNPAPPTSTVIHIRSETSVPDHVVWSLFNTLFMNTCCLGFIAFAYSVKSRDRKMVGDVTGAQAYASTAKCLNIWALILGIFMTILLVIIPVLVVQAQR
With B3 the “Reporter activity corrected” value (25 ng/well expression plasmid) was 3.5, the “Reporter activity corrected” value (50 ng/well expression plasmid) was 5.6 and the “Reporter activity corrected” value (100 ng/well expression plasmid) was 8.8. The “Dependence” value was “increases that were dependent on the amount of expression plasmid”.

B4: 148 (protein, listed as Homo sapiens)
chain: MNHIVQTFSPVNSGQPPNYEMLKEEQEVAMLGAPHNPAPPTSTVIHIRSETSVPDHVVWSLFNTLFMNTCCLGFIAFAYSVKSRDRKMVGDVTGAQAYASTAKCLNIWALILGIFMTILLIIIPVLVVQAQR
With B4 the “Reporter activity corrected” value (25 ng/well expression plasmid) was 1.6, the “Reporter activity corrected” value (50 ng/well expression plasmid) was 3.4 and the “Reporter activity corrected” value (100 ng/well expression plasmid) was 5.0. The “Dependence” value was “increases that were dependent on the amount of expression plasmid”.

B5: 152 (protein, listed as Homo sapiens)
chain: MAPAGCCCCCCFWGGAVAAAGAARRVLLLLLLGVLSAGLRPGALATEHYSPLSLLKQELQHRQQQEAPAGGGGCSPQSGDWGDQYSAECGESSFLNFHDSDCEPKGSSPCDSLLSLNTEKILSQAKSIAEQKRFPFATDNDSTNEELAIAYVLIGSGLYDEAIRHFSTMLQEEPDLVSAIYGRGIAYGKKGLHDIKNAELALFELSRVITLEPDRPEVFEQRAEILSPLGRINEAVNDLTKAIQLQPSARLYRHRGTLYFISEDYATAHEDFQQSLELNKNQPIAMLYKGLTFFHRGLLKEAIESFKEALKQKVDFIDAYKSLGQAYRELGNFEAATESFQKALLLNQNHVQTLQLRGMMLYHHGSLQEALKNFKRCLQLEPYNEVCQYMKGLSHVAMGQFYEGIKAQTKVMLNDPLPGQKASPEYLKVKYLREYSRHLHAHLDTPLTEYNIDVDLPGSFKDHWAKNLPFLIEDYEEQPGLQPHIKDVLHQNFESYKPEVQELICVADRLGSLMQYETPGFLPNKRIHRAMGLAALEVMQAVQRTWTNSKVRMNGKTRLMQWRDMFDIAVKWRRIADPDQPVLWLDQMPARSLSRGFNNHINLIRGQVINMRYLEYFEKILHFIKDRILVYHGANNPKGLLEVREALEKVHKVEDLLPIMKQFNTKTKDGFTVNTKVPSLKDQGKEYDGFTITITGDKVGNILFSVETQTTEERTQLYHAEIDALYKDLTAKGKVLILSSEFGEADAVCNLILSLVYYFYNLMPLSRGSSVIAYSVIVGALMASGKEVAGKIPKGKLVDFEAMTAPGSEAFSKVAKSWMNLKSISPSYKTLPSVSETFPTLRSMIEVLNTDSSPRCLKKL
For B5, the “Dependence” value was “increases that were dependent on the amount of expression plasmid”.

B6: 122 (protein, listed as Mus musculus)
chain: MAPAGCGCGCSGSLGAAVVRPLLLLLGALACVRATEHYSPLSLLKQELQHRQQQEAPAGGGCPQSGDWADQYPECESSFLNFHESDCELRGSAPCDSLLSLNTEKILSQAKSIAEQKRFPFATDNDSTNEELAIAYVLVGSGLYDEAIRHFSTMLQEAIEAFKEALKQKVDFIDAYKSLGQAYRELGNFDAATESFQKALLLNQNHVQTQQLRGMMLYHHGSLQEALKNFKRCLQLEPYNELCQYMKGLSHVAMGQFYEGIKAQTKVMLNDPLPGQKASPEYLRVKYLREYSRYLHAHLDTPLTEYNIDSDLPGSFKDHWAKNLPFLIDGYEEQPGLQPHIRDVLHQNFEGYKPEVQELICVADRLGSLMQYETPGFLPNKRIHRAMGLAALEVMQAVHRTWTNSKVRMNGKTRLLQWRDMFDIAVKWRRIADPDQPVLWLDQMPAPSLSRGFNNHINLIRGQVINMRYLEYFEKILHFIKDRILVYHGANNPKGLLEVREALEKVHKVEDLLPIMKQFNTKTKDGFTVNTKVPSLKDQGKEYDGFTITITGDKVGNILFSVETQTTEERTQLYHAEIDALYKDLTAKGKVLTLSAEFGEADAVCNLILSLVYYFYNLMPLSRGSSVIAYSVIVGALMASGKEVAGKIPKGKLVDFEAMTAPGSEAFSKIAKSWMNLKSISPSYKTLPSVSETFPTLRSMIEVLNTDSTPRCLKKL
B6 was tested, and the “Reporter activity corrected” value [1] was 1.8, the “Reporter activity corrected” value (25 ng/well expression plasmid) was 2.9 and the “Reporter activity corrected” value (50 ng/well expression plasmid) was 6.8. The “Dependence” value was “increases that were dependent on the amount of expression plasmid”.

B7: 154 (protein, listed as Homo sapiens)
chain: MAPAGCCCCCCFWGGAVAAAGAARRVLLLLLLGVLSARLRPGALATEHYSPLSLLKQELQHRQQQEAPAGGGGCSPQSGDWGDQYSAECGESSFLNFHDSDCEPKGSSPCDSLLSLNTEKILSQAKSIAEQKRFPFATDNDSTNEELAIAYVLIGSGLYDEAIRHFSTMLQILSPLGRINEAVNDLTKAIQLQPSARLYRHRGTLYFISEDYATAHEDFQQSLELNKNQPIAMLYKGLTFFHRGLLKEAIESFKEALKQKVDFIDAYKSLGQAYRELGNFEAATESFQKALLLNQNHVQTLQLRGMMLYHHGSLQEALKNFKRCLQLEPYNEVCQYMKGLSHVAMGQFYEGIKAQTKVMLNDPLPGQKASPEYLKVKYLREYSRYLHAHLDTPLTEYNIDVDLPGSFKDHWAKNLPFLIEDYEEQPGLQPHIKDVLHQNFESYKPEVQELICVADRLGSLMQYETPGFLPNKRIHRAMGLAALEVMQAVQRTWTNSKVRMNGKTRLMQWRDMFDIAVKWRRIADPDQPVLWLDQMPARSLSRGFNNHINLIRGQVINMRYLEYFEKILHFIKDRILVYHGANNPKGLLEVREALEKVHKVEDLLPIMKFNTKTKDGFTVNTKVPSLKDQGKEYDGFTITITGDKVGNILFSVETQTTEERTQLYHAEIDALYKDLTAKGKVLILSSEFGEADAVCNLILSLVYYFYNLMPLSRGSSVIAYSVIVGALMASGKEVAGKIPKGKLVDFEAMTAPGSEAFSKVAKSWMNLKSISPSYKTLPSVSETFPTLRSMIEVLNTDSSPRCLKKL
B7 was tested, and the “Dependence” value was “increases that were dependent on the amount of expression plasmid”.
